Data from patent US20240343817A1 (STAIDSON BEIJING BIOPHARMACEUTICALS, published 2024).

Molecular target: human CD40 on cells (human, UniProt P25942 21-277)
Experiment: cell-based or functional assay

Sequence of human CD40 on cells (P25942 21-277 limits assumed): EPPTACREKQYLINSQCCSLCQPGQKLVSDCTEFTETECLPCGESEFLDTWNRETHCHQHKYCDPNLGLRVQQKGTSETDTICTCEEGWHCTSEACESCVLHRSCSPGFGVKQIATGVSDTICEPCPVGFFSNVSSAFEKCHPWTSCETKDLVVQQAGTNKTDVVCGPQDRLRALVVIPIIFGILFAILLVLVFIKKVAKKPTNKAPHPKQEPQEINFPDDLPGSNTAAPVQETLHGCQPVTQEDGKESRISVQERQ

| IC50, HEK-Blue CD40L NF-κB activation assay (SEAP), antibody as human IgG4 | Binder |
| --- | --- |
| 0.0219 µg/mL | D22 (antibody, human IgG4, V domains shown) VH: QVQLVQSGAEVKKPGASVKVSCKASVYSFTGYTVNWVRQAPGQRLEWMGLINPYTGGTTYNQKFKGRVTLTIDKSASTAYMELSSLRSEDTAVYYCASSYYSKPYAMDYWGQGTLVTVSS VL: EIVMTQSPATLSVSPGERATLSCKASQNVHTRVAWYQQKPGQAPRLLIYLASDRRTGIPARFSGSGSGTEFTLTISSLQSEDFAVYYCLQHWTYPLTFGQGTKVEIK |
| 0.018 µg/mL | D30 (antibody, human IgG4, V domains shown) VH: QVQLVQSGAEVKKPGASVKVSCKASVYSFTGYTVNWVRQAPGQRLEWMGLINPYNGGTWYNQKFKGRVTLTIDKSASTAYMELSSLRSEDTAVYYCASSMYSNPYAMDYWGQGTLVTVSS VL: EIVMTQSPATLSVSPGERATLSCKASQNVHTRVAWYQQKPGQAPRLLIYLASDRRTGIPARFSGSGSGTEFTLTISSLQSEDFAVYYCLQHWNYPLTFGQGTKVEIK |
| 0.0338 µg/mL | D34 (antibody, human IgG4, V domains shown) VH: QVQLVQSGAEVKKPGASVKVSCKASVYSFTGYTVNWVRQAPGQRLEWMGLINPYNGGTTYNQKFKGRVTLTIDKSASTAYMELSSLRSEDTAVYYCASSYYSRPYAMDYWGQGTLVTVSS VL: EIVMTQSPATLSVSPGERATLSCKASQNVHTRVAWYQQKPGQAPRLLIYLASDRRTGIPARFSGSGSGTEFTLTISSLQSEDFAVYYCLQHWSYPLTFGQGTKVEIK |
| 0.0273 µg/mL | D25 (antibody, human IgG4, V domains shown) VH: QVQLVQSGAEVKKPGASVKVSCKASVYSFTGYVVNWVRQAPGQRLEWMGLINPYNGGTTYNQKFKGRVTLTIDKSASTAYMELSSLRSEDTAVYYCASSYYSNPYAMDYWGQGTLVTVSS VL: EIVMTQSPATLSVSPGERATLSCKASQNVHTAVAWYQQKPGQAPRLLIYLASDRRTGIPARFSGSGSGTEFTLTISSLQSEDFAVYYCLQHWNYPLTFGQGTKVEIK |
| 0.0164 µg/mL | D32 (antibody, human IgG4, V domains shown) VH: QVQLVQSGAEVKKPGASVKVSCKASVYSFTGYTVNWVRQAPGQRLEWMGLINPYHGGTTYNQKFKGRVTLTIDKSASTAYMELSSLRSEDTAVYYCASSSYSNPYAMDYWGQGTLVTVSS VL: EIVMTQSPATLSVSPGERATLSCKASQNVHTRVAWYQQKPGQAPRLLIYLASDRRTGIPARFSGSGSGTEFTLTISSLQSEDFAVYYCLQHWNYPLTFGQGTKVEIK |
| 0.0168 µg/mL | D43 (antibody, human IgG4, V domains shown) VH: QVQLVQSGAEVKKPGASVKVSCKASVYSFTGYTVNWVRQAPGQRLEWMGLINPTNGGTSYNQKFKGRVTLTIDKSASTAYMELSSLRSEDTAVYYCASSYYSNPYASDYWGQGTLVTVSS VL: EIVMTQSPATLSVSPGERATMSCKASQNVHTRVAWYQQKPGQAPRLLIYLASDRRTGIPARFSGSGSGTEFTLTISSLQSEDFAVYYCLQHWNYPLTFGQGTKVEIK |
| 0.0142 µg/mL | D40 (antibody, human IgG4, V domains shown) VH: QVQLVQSGAEVKKPGASVKVSCKASVYSFTGYTVNWVRQAPGQRLEWMGLINPYTGGTTYNQKFKGRVTLTIDKSASTAYMELSSLRSEDTAVYYCASSYWSNPYAMDYWGQGTLVTVSS VL: EIVMTQSPATLSVSPGERATLSCKASQNVHTRVAWYQQKPGQAPRLLIYLASDRRTGIPARFSGSGSGTEFTLTISSLQSEDFAVYYCLQHWNYPLTFGQGTKVEIK |
| 0.0164 µg/mL | D24 (antibody, human IgG4, V domains shown) VH: QVQLVQSGAEVKKPGASVKVSCKASVYSFTGYTVNWVRQAPGQRLEWMGLINPKNGGTTYNQKFKGRVTLTIDKSASTAYMELSSLRSEDTAVYYCASSLYSNPYAMDYWGQGTLVTVSS VL: EIVMTQSPATLSVSPGERATLSCKASQNVHTRVAWYQQKPGQAPRLLIYLASDRRTGIPARFSGSGSGTEFTLTISSLQSEDFAVYYCLQHWNYPLTFGQGTKVEIK |
| 0.0157 µg/mL | D45 (antibody, human IgG4, V domains shown) VH: QVQLVQSGAEVKKPGASVKVSCKASVYSFTGYTVNWVRQAPGQRLEWMGLINPYNGGTSYNQKFKGRVTLTIDKSASTAYMELSSLRSEDTAVYYCASSIYSNPYAMDYWGQGTLVTVSS VL: EIVMTQSPATLSVSPGERATLSCKASQNVHTRVAWYQQKPGQAPRLLIYLASDRRTGIPARFSGSGSGTEFTLTISSLQSEDFAVYYCLQHWNQPLTFGQGTKVEIK |
| 0.03 µg/mL | D39 (antibody, human IgG4, V domains shown) VH: QVQLVQSGAEVKKPGASVKVSCKASVYSFTGYTVNWVRQAPGQRLEWMGLINPYNGGTTYNQKFKGRVTLTIDKSASTAYMELSSLRSEDTAVYYCASSYYSNPYAQDYWGQGTLVTVSS VL: EIVMTQSPATLSVSPGERATLSCKASQNVHTRVAWYQQKPGQAPRLLIYLASDRRTGIPARFSGSGSGTEFTLTISSLQSEDFAVYYCLQHWNYPLTFGQGTKVEIK |
| 0.0124 µg/mL | D28 (antibody, human IgG4, V domains shown) VH: QVQLVQSGAEVKKPGASVKVSCKASVYSFTGYTVNWVRQAPGQRLEWMGLINPYSGGTTYNQKFKGRVTLTIDKSASTAYMELSSLRSEDTAVYYCASSYYSRPYAMDYWGQGTLVTVSS VL: EIVMTQSPATLSVSPGERATLSCKASQNVHTRVAWYQQKPGQAPRLLIYLASDRRTGIPARFSGSGSGTEFTLTISSLQSEDFAVYYCLQHWNSPLTFGQGTKVEIK |
| 0.0194 µg/mL | D41 (antibody, human IgG4, V domains shown) VH: QVQLVQSGAEVKKPGASVKVSCKASVYSFTGYTVNWVRQAPGQRLEWMGLINPYSGGTTYNQKFKGRVTLTIDKSASTAYMELSSLRSEDTAVYYCASSPYSNPYAMDYWGQGTLVTVSS VL: EIVMTQSPATLSVSPGERATLSCKASQNVHTRVAWYQQKPGQAPRLLIYLASDRRTGIPARFSGSGSGTEFTLTISSLQSEDFAVYYCLQHWNAPLTFGQGTKVEIK |
| 0.0233 µg/mL | D35 (antibody, human IgG4, V domains shown) VH: QVQLVQSGAEVKKPGASVKVSCKASVYSFTGYLVNWVRQAPGQRLEWMGLINPYNGGTTYNQKFKGRVTLTIDKSASTAYMELSSLRSEDTAVYYCASSYYSNPYAMDYWGQGTLVTVSS VL: EIVMTQSPATLSVSPGERATLSCKASQNVHTAVAWYQQKPGQAPRLLIYLASDRRTGIPARFSGSGSGTEFTLTISSLQSEDFAVYYCLQHWNYPLTFGQGTKVEIK |
| 0.0156 µg/mL | D38 (antibody, human IgG4, V domains shown) VH: QVQLVQSGAEVKKPGASVKVSCKASVYSFTGYTVNWVRQAPGQRLEWMGMINPYNGGTTYNQKFKGRVTLTIDKSASTAYMELSSLRSEDTAVYYCASSYYSVPYAMDYWGQGTLVTVSS VL: EIVMTQSPATLSVSPGERATLSCKASQNVHTRVAWYQQKPGQAPRLLIYLASDRRTGIPARFSGSGSGTEFTLTISSLQSEDFAVYYCLQHWNYPLTFGQGTKVEIK |
| 0.0169 µg/mL | D23 (antibody, human IgG4, V domains shown) VH: QVQLVQSGAEVKKPGASVKVSCKASVYGFTGYTVNWVRQAPGQRLEWMGLINPYNGGTTYNQKFKGRVTLTIDKSASTAYMELSSLRSEDTAVYYCASSYYSNPYANDYWGQGTLVTVSS VL: EIVMTQSPATLSVSPGERATLSCKASQNVHTAVAWYQQKPGQAPRLLIYLRSDRRTGIPARFSGSGSGTEFTLTISSLQSEDFAVYYCLQAWNYPLTFGQGTKVEIK |
| 0.0298 µg/mL | D27 (antibody, human IgG4, V domains shown) VH: QVQLVQSGAEVKKPGASVKVSCKASVYSFTGYTVNWVRQAPGQRLEWMGLIVPYNGGTTYNQKFKGRVTLTIDKSASTAYMELSSLRSEDTAVYYCASSGYSNPYAMDYWGQGTLVTVSS VL: EIVMTQSPATLSVSPGERATLSCKASQNVHTNVAWYQQKPGQAPRLLIYLASDRRTGIPARFSGSGSGTEFTLTISSLQSEDFAVYYCLQHWNYPLTFGQGTKVEIK |
| 0.0139 µg/mL | D31 (antibody, human IgG4, V domains shown) VH: QVQLVQSGAEVKKPGASVKVSCKASVYSFTGYTVNWVRQAPGQRLEWMGLINPYNGGTSYNQKFKGRVTLTIDKSASTAYMELSSLRSEDTAVYYCASSYYSNPYAADYWGQGTLVTVSS VL: EIVMTQSPATLSVSPGERATLSCKASQNVHTRVAWYQQKPGQAPRLLIYLASDRRTGIPARFSGSGSGTEFTLTISSLQSEDFAVYYCLQHWNYPLTFGQGTKVEIK |
| 0.0212 µg/mL | D36 (antibody, human IgG4, V domains shown) VH: QVQLVQSGAEVKKPGASVKVSCKASVYSFTGYTVNWVRQAPGQRLEWMGLINPYNGGTTYNQKFKGRVTLTIDKSASTAYMELSSLRSEDTAVYYCASSRYSNPYAMDYWGQGTLVTVSS VL: EIVMTQSPATLSVSPGERATLSCKASQNVHTHVAWYQQKPGQAPRLLIYLASDRRTGIPARFSGSGSGTEFTLTISSLQSEDFAVYYCLQHWNYPLTFGQGTKVEIK |
| 0.0201 µg/mL | D44 (antibody, human IgG4, V domains shown) VH: QVQLVQSGAEVKKPGASVKVSCKASVYSFTGYTVNWVRQAPGQRLEWMGLINPYNGGTTYNQKFKGRVTLTIDKSASTAYMELSSLRSEDTAVYYCASSYYSLPYAMDYWGQGTLVTVSS VL: EIVMTQSPATLSVSPGERATLSCKASQNVHTRVAWYQQKPGQAPRLLIYLASDRRTGIPARFSGSGSGTEFTLTISSLQSEDFAVYYCLQHWNYPLTFGQGTKVEIK |
| 0.0342 µg/mL | D29 (antibody, human IgG4, V domains shown) VH: QVQLVQSGAEVKKPGASVKVSCKASVYSFTGYTVNWVRQAPGQRLEWMGLINPMNGGTTYNQKFKGRVTLTIDKSASTAYMELSSLRSEDTAVYYCASSYYSNPYAGDYWGQGTLVTVSS VL: EIVMTQSPATLSVSPGERATLSCKASQNVHTRVAWYQQKPGQAPRLLIYLASDRRTGIPARFSGSGSGTEFTLTISSLQSEDFAVYYCLQHWNRPLTFGQGTKVEIK |
| 0.0211 µg/mL | D37 (antibody, V domains shown) VH: QVQLVQSGAEVKKPGASVKVSCKASVYSFTGYTVNWVRQAPGQRLEWMGLIAPYNGGTTYNQKFKGRVTLTIDKSASTAYMELSSLRSEDTAVYYCALSYYSNPYAMDYWGQGTLVTVSS VL: EIVMTQSPATLSVSPGERATLSCKASQNVHTRVAWYQQKPGQAPRLLIYLASDRRTGIPARFSGSGSGTEFTLTISSLQSEDFAVYYCLQHWNYPLTFGQGTKVEIK |
